Test results from patent publication US20210054355A1 (NEW YORK UNIVERSITY, published 2021).

How the values were obtained:
[1] = target: T1, FGFR1c^ecto (human FGFR1c ligand-binding domain, D2, D3 and D2-D3 linker) (human, UniProt P11362 142-365); assay: crystal structure of the ternary complex, 3.0 Å
T1 sequence: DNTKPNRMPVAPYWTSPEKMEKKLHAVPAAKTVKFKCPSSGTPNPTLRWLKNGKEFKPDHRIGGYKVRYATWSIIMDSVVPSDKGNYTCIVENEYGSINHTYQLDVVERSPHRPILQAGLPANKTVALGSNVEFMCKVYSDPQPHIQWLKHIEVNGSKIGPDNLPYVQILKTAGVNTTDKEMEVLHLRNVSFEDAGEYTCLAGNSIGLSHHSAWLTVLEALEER
Description: To prepare the FGF23-FGFR1c^ecto-αKlotho^ecto complex, its purified components were mixed at a molar ratio of 1.2:1.2:1 and spin-concentrated using an Amicon Ultra-15 concentrator (#UFC901024, Merck Millipore, Germany). The concentrated sample was applied to a Superdex 200 column (GE Healthcare, USA) and eluted isocratically in 25 mM HEPES pH 7.5 buffer containing 500 mM NaCl and 100 mM (NH₄)₂SO₄. Column peak fractions were analyzed by SDS-PAGE and peak fractions containing the ternary complex were concentrated to 7 mg/ml. Concentrated ternary complex was screened for crystallization by sitting drop vapor diffusion. A range of commercially available crystallization screen kits was used: Protein Complex Suite (#130715), Classics Suite (#130701), Classics II Suite (#130723), and Classics Lite Suite (#130702) from Qiagen, Germany; Crystal Screen (#HR2-110), Crystal Screen 2 (#HR2-112), Crystal Screen Lite (#HR2-128), PEG/Ion Screen (#HR2-126), and PEGRx1 (#HR2-082) from Hampton Research, USA; and PEG Grid Screening Kit (#36436) and Crystallization Cryo Kit (#75403) from Sigma-Aldrich, USA. Drops consisting of 100 nl reservoir solution and 100 nl protein complex solution were equilibrated against 100 μl well volume set up in 96-well plates (Fisher Scientific, USA) using a Mosquito crystallization robot (TTP Labtech, U.K.). […]

[2] = target: T2, αKlotho^ecto/ΔRBA (soluble αKlotho ectodomain lacking L544 to T565 of the KL2 β1α1 loop) (human, UniProt Q9UEF7 34-981); assay: size-exclusion chromatography of FGF23/αKlotho^ecto/ΔRBA mixture
T2 construct: the mature protein is E34 to S959; Expressed and purified like the wild type (pEF1α/myc-His A); also called α-Klotho^ecto/deltaRBA; αKlotho^ecto/ΔRBA mutant
T2 sequence: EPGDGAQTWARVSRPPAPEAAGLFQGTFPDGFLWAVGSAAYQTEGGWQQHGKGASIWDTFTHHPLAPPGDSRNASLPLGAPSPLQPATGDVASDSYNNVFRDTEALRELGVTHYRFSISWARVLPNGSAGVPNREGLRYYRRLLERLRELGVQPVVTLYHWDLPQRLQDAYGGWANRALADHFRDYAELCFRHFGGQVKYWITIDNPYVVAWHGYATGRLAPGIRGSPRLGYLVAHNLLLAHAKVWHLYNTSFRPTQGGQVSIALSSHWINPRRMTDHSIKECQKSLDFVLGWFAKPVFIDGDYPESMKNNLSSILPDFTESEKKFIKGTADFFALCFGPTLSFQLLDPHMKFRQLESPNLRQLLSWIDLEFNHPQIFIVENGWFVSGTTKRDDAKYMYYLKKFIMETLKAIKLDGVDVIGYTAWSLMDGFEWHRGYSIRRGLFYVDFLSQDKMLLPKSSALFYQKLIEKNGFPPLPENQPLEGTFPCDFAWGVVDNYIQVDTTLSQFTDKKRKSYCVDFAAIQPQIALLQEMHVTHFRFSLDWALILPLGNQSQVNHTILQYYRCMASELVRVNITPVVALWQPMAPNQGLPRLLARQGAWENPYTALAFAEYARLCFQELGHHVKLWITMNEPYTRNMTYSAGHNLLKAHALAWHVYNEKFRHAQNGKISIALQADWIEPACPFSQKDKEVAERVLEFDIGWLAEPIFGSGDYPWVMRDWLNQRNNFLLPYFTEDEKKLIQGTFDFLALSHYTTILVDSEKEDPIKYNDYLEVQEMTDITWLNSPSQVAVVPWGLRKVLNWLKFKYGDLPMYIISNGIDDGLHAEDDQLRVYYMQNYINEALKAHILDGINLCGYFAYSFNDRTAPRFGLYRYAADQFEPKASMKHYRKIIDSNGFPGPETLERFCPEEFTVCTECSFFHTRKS

B1: FGF23^WT (human FGF23 Y25 to S205 with R176Q/R179Q, protease-resistant minimal protein) (ligand)
chain: YPNASPLLGSSWGGLIHLYTATARNSYHLQIHKNGHVDGAPHQTIYSALMIRSEDAGFVVITGVMSRRYLCMDFRGNIFGSHYFDPENCRFQHQTLENGYDVYHSPQYHFLVSLGRAKRAFLPGMNPPPYSQFLSRRNEIPLIHFNTPIPRQHTQSAEDDSERDPLNVLKPRARMTPAPAS
notes: also called wild-type FGF23; minimal FGF23
[1]
  binding result: binds
[2]
  binding result: binds
